The test system of one data set is NCCCNCCCCNCCCN
The data set can be described thus: steady-state oxygen consumption, oxygen electrode. It is filed as biochemical, Saccharomyces cerevisiae. The conditions noted are these: 1.2 mM oxygen, pH 9.35, 10% glycerol, 25 °C, pH 9.35.

In the next data set the test system is CC(=O)NCCCNCCCCNCCCN
The data set can be described thus: steady-state oxygen consumption, oxygen electrode. The note with it: 1.2 mM oxygen, pH 9.0, 10% glycerol, 25 °C, pH 9.0. It is filed as biochemical, Saccharomyces cerevisiae.

A word on the Km: it is the concentration of substrate that gives half-maximal velocity. As a reminder, the kcat is the maximal rate divided by the concentration of active sites. The term kcat/Km denotes the turnover number divided by the Michaelis constant.

“Fms1 (Saccharomyces cerevisiae S288C; D94N)”: in the data set on NCCCNCCCCNCCCN, the Km is 320 ± 88 µM and the turnover number (kcat) stood at 2.0 ± 0.3 s⁻¹. For the same substance, in the data set on CC(=O)NCCCNCCCCNCCCN, the Km was determined as 30 ± 5 µM, the kcat worked out at 9.7 ± 0.2 s⁻¹ and the catalytic efficiency (kcat/Km) is 320000 ± 50000 M⁻¹ s⁻¹.
Turning to “Fms1 (Saccharomyces cerevisiae S288C; N195A)”, in the data set on NCCCNCCCCNCCCN, the Km stood at 127 ± 27 µM, the catalytic constant (kcat) came to 4.9 ± 0.2 s⁻¹ and the catalytic efficiency (kcat/Km) came to 38500 ± 8300 M⁻¹ s⁻¹. Besides, in the data set with CC(=O)NCCCNCCCCNCCCN, the Km amounted to 104 ± 14 µM, the kcat is 8.1 ± 0.2 s⁻¹ and the kcat/Km worked out at 78000 ± 13000 M⁻¹ s⁻¹.
